Results: the RNAGym collection of RNA variant scans (doi:10.7554/elife.80360)

B1: CPEB3 Ribozyme (parent)
chain: GGGGGCCACAGCAGAAGCGUUCACGUCGCGGCCCCUGUCAGAUUCUGGUGAAUCUGCGAAUUCUGCUGU

Variants of: B1
Assay: self-cleavage, relative activity (ratio to wild type); higher = more cleavage; co-transcriptional

Row | Variant | self-cleavage
1 | GGGUGCCACAGCAGAAGCGUUCACGUGGCGGCCCCUGUCAGAUUCUGGUGAAUCUGCGAAUUCUGCUGU | 0.0677
2 | GGGUGCCACAGCAGAAGCGUUCACGUCGCGGCCCCUGUCAGAUUCUGGUGAAUCUGCGAGUUCUGCUGU | 0.302
3 | GGGCGCCACAGCAGAAGCGUUCACGUCGCGGCUCCUGUCAGAUUCUGGUGAAUCUGCGAAUUCUGCUGU | 0.804
4 | GGGCGCCACAGCAGAAGCGUUCACGUCGCGGCGCCUGUCAGAUUCUGGUGAAUCUGCGAAUUCUGCUGU | 0.98
5 | GGGCGCCACAGCAGAAGCGUUCACGUCGCGGCACCUGUCAGAUUCUGGUGAAUCUGCGAAUUCUGCUGU | 0.989
6 | GGGUGCCACCGCAGAAGCGUUCACGUCGCGGCCCCUGUCAGAUUCUGGUGAAUCUGCGAAUUCUGCUGU | 0.905
7 | GGGUGCCACGGCAGAAGCGUUCACGUCGCGGCCCCUGUCAGAUUCUGGUGAAUCUGCGAAUUCUGCUGU | 0.784
8 | GGGCGCCACAGCAGAAGCGUUCACGUCGCGUCCCCUGUCAGAUUCUGGUGAAUCUGCGAAUUCUGCUGU | 0.179
9 | GGGCGCCACAGCAGAAGCGUUCACGUCGCGACCCCUGUCAGAUUCUGGUGAAUCUGCGAAUUCUGCUGU | 0.179
10 | GGGCGCCACAGCAGAAGCGUUCACGUCGCGGCCCCUGUCAGAUUCUGGUGAAUCUUCGAAUUCUGCUGU | 0.339
11 | GGGUGCCACAGCGGAAGCGUUCACGUCGCGGCCCCUGUCAGAUUCUGGUGAAUCUGCGAAUUCUGCUGU | 0.649
12 | GGGCGCCACAGCAGAAGCGUUUACGUCGCGGCCCCUGUCAGAUUCUGGUGAAUCUGCGAAUUCUGCUGU | 0.074
13 | GGGCGCCACAGCAGAAGCGUUGACGUCGCGGCCCCUGUCAGAUUCUGGUGAAUCUGCGAAUUCUGCUGU | 0.082
14 | GGGCGCCACAGCAGAAGCGUUCACGUCGCGGCCCCUGUCAGAUUCUGGUGAAUCGGCGAAUUCUGCUGU | 0.231
15 | GGGUGCCACAGCAGAAGCGUUCACGUCGCGGCCCCUGUCCGAUUCUGGUGAAUCUGCGAAUUCUGCUGU | 0.199
16 | GGGUGUCACAGCAGAAGCGUUCACGUCGCGGCCCCUGUCAGAUUCUGGUGAAUCUGCGAAUUCUGCUGU | 0.31
17 | GGGUGCCACAGCAGAAGCGUUCACGUCGGGGCCCCUGUCAGAUUCUGGUGAAUCUGCGAAUUCUGCUGU | 0.1
18 | GGGUGCCACAGCAGAAGCGUUGACGUCGCGGCCCCUGUCAGAUUCUGGUGAAUCUGCGAAUUCUGCUGU | 0.0672
19 | GGGCGCCACAGCAGAAGCGUUCACGUCGCGGCCCCUGUCAGAUUCUGGUGAAUCUGCGAAUUGUGCUGU | 0.211
20 | GGGUGCCACAGCAGAAGCGUUCUCGUCGCGGCCCCUGUCAGAUUCUGGUGAAUCUGCGAAUUCUGCUGU | 0.86
21 | GGGUGCCACAGCAGAAGCGUUCCCGUCGCGGCCCCUGUCAGAUUCUGGUGAAUCUGCGAAUUCUGCUGU | 0.573
22 | GGGCGCCACAGCAGAAGCGUUCACGUCGCGGCCCCUGUCAGAUUCUGAUGAAUCUGCGAAUUCUGCUGU | 0.731
23 | GGGCGCCACAGCAGAAGCGUUCACGUCGCGGCCCCUGUCAGAGUCUGGUGAAUCUGCGAAUUCUGCUGU | 0.26
24 | GGGCGCCACAGCAGAAGCGUUCACGUCGCGGCCCCUGUCAGACUCUGGUGAAUCUGCGAAUUCUGCUGU | 0.406
25 | GGGCGCCACAGCAGAAGCGUUCACGUCGCGGCCCCUGUCAUAUUCUGGUGAAUCUGCGAAUUCUGCUGU | 0.159
26 | GGGCGCCACAGCAGAAGCGUUCACGUCGCGGCCCCUGUCAGAUUCUGGUGAAGCUGCGAAUUCUGCUGU | 0.142

Row | Variant | self-cleavage
27 | GGGCGCCACAGCAGAAGCGUUCACGUCGCGGCCCCUGUCAGAUACUGGUGAAUCUGCGAAUUCUGCUGU | 0.373
28 | GGGCGCCACAGCAGAAGCGUUCACGUCGCGGCCCCUGUCAGAUCCUGGUGAAUCUGCGAAUUCUGCUGU | 0.47
29 | GGGCGCCACAGCAGAAGCGUUCAUGUCGCGGCCCCUGUCAGAUUCUGGUGAAUCUGCGAAUUCUGCUGU | 0.124
30 | GGGUGCCACAGCAGAAGCGUUCACGUCGCGGCCCCUGUCAGAUUCUGGUGAAUCUGCGAAUUCUGCUGU | 0.806
31 | GGGCGUCACAGCAGAAGCGUUCACGUCGCGGCCCCUGUCAGAUUCUGGUGAAUCUGCGAAUUCUGCUGU | 0.132
32 | GGGCGCCACAGCAGAAGCCUUCACGUCGCGGCCCCUGUCAGAUUCUGGUGAAUCUGCGAAUUCUGCUGU | 0.104
33 | GGGCGCCACAGCAGAAGCUUUCACGUCGCGGCCCCUGUCAGAUUCUGGUGAAUCUGCGAAUUCUGCUGU | 0.103
34 | GGGCGCCACAGCAGAAGCGUUCACGUCGCGGCCCUUGUCAGAUUCUGGUGAAUCUGCGAAUUCUGCUGU | 0.0739
35 | GGGCGCCACAGCAGAAGCGUUCACGUCGCGGCCCCUGCCAGAUUCUGGUGAAUCUGCGAAUUCUGCUGU | 0.302
36 | GGGCGCCACAGCAGAAGCGUUCACGUCGCGGCCCCUGUCAGAUUCUGGUGAAUCUGCGAAAUCUGCUGU | 0.147
37 | GGGUGCCAUAGCAGAAGCGUUCACGUCGCGGCCCCUGUCAGAUUCUGGUGAAUCUGCGAAUUCUGCUGU | 0.954
38 | GGGCGCCACAGCAGAAGCGUUCACGUCGCCGCCCCUGUCAGAUUCUGGUGAAUCUGCGAAUUCUGCUGU | 0.0792
39 | GGGUGCCACAGCAGAAGCGUUCACGUCGCGGCCCCUGUCAGAUUCUGGUGAAUCUGCGGAUUCUGCUGU | 0.442
40 | GGGUGCAACAGCAGAAGCGUUCACGUCGCGGCCCCUGUCAGAUUCUGGUGAAUCUGCGAAUUCUGCUGU | 0.0496
41 | GGGUGCGACAGCAGAAGCGUUCACGUCGCGGCCCCUGUCAGAUUCUGGUGAAUCUGCGAAUUCUGCUGU | 0.0264
42 | GGGCGCCACAGCAGAAGCGUUCACGUGGCGGCCCCUGUCAGAUUCUGGUGAAUCUGCGAAUUCUGCUGU | 0.108
43 | GGGCGCCACAGCAGAAGCGUUCACGUAGCGGCCCCUGUCAGAUUCUGGUGAAUCUGCGAAUUCUGCUGU | 0.0979
44 | GGGUGCCACAGCAGGAGCGUUCACGUCGCGGCCCCUGUCAGAUUCUGGUGAAUCUGCGAAUUCUGCUGU | 0.678
45 | GGGUGCCACAGCAGCAGCGUUCACGUCGCGGCCCCUGUCAGAUUCUGGUGAAUCUGCGAAUUCUGCUGU | 0.138
46 | GGGCGCCACAGCAGAAGCGUUCACGUCGCGGCCCCUGUCAGAUUCUGGUGAAUCUGCGAGUUCUGCUGU | 0.235
47 | GGGCGCCACAGCAGAAGCGUUCACGUCGCGGCCCCUGUCAGAUUCUGGUGAAUCUGGGAAUUCUGCUGU | 0.15
48 | GGGCGCCACAGCAGAAGCGUUCACGUCGCGGCCCCUGUCAGAUUCUGGUGAAUCUGUGAAUUCUGCUGU | 0.234
49 | GGGCGCCACAGCAGAAGCGUUCACGUCGCGGCCCCUGUCAGAUUCAGGUGAAUCUGCGAAUUCUGCUGU | 0.663
50 | GGGCGCCACAGCAGAAGCGUUCACGUCGCGGCCCCUGUCAGAUUCGGGUGAAUCUGCGAAUUCUGCUGU | 0.601
51 | GGGCGCCACAGCAGAAGCGUUCACGUCGCGGCCCCUGUCAGAUUCUGGUGAAUCUGCGAAUACUGCUGU | 0.157
52 | GGGCGCCACAGCAGAAGCGUUCACGUCGCGGCCCCUGUCAGAUUCUGGUGAAUCUGCGAAUUCGGCUGU | 0.355

Row | Variant | self-cleavage
53 | GGGCGCCACAGCAGAAGCGUUCACGUCGCGGCCCCUGUCAGAUUCUGGUGAAUCUGCGAAUUCUGCUGC | 0.958
54 | GGGUGCCACAGCAGAGGCGUUCACGUCGCGGCCCCUGUCAGAUUCUGGUGAAUCUGCGAAUUCUGCUGU | 0.444
55 | GGGUGCCACAGCAGACGCGUUCACGUCGCGGCCCCUGUCAGAUUCUGGUGAAUCUGCGAAUUCUGCUGU | 0.0815
56 | GGGCACCACAGCAGAAGCGUUCACGUCGCGGCCCCUGUCAGAUUCUGGUGAAUCUGCGAAUUCUGCUGU | 0.0843
57 | GGGCGCCACAGCAGAAGCGUUCACGUCGCGGCCCCUGUCAGAUUCUCGUGAAUCUGCGAAUUCUGCUGU | 0.718
58 | GGGUGCCACAGCAGAAGAGUUCACGUCGCGGCCCCUGUCAGAUUCUGGUGAAUCUGCGAAUUCUGCUGU | 0.0913
59 | GGGCGCCACAGCAGAAGCGUUCACGUCGCGGCCCCUGUCAGAUUCUGGUGAAUCUGCGAAUUCUGCUCU | 0.941
60 | GGGCGCCACAGCAGAAGCGUUCACGUCGCGGCCCCUGUCAGAUUCUGGUGAAUCUGCGAAUUCUGCUAU | 0.976
61 | GGGCGCCACAGCAGAAGCGUUCACGUCGCGGCCCCUGUCAGAUUCUGGUUAAUCUGCGAAUUCUGCUGU | 0.637
62 | GGGUGCCCCAGCAGAAGCGUUCACGUCGCGGCCCCUGUCAGAUUCUGGUGAAUCUGCGAAUUCUGCUGU | 0.691
63 | GGGUGCCGCAGCAGAAGCGUUCACGUCGCGGCCCCUGUCAGAUUCUGGUGAAUCUGCGAAUUCUGCUGU | 0.512
64 | GGGCGCCACAGCAGAAGCGUUCACGUCGCGGCCCCUGUCAGAUUCUGGAGAAUCUGCGAAUUCUGCUGU | 0.657
65 | GGGCGCCACAGCAGAAGCGUUCACGUCGCGGCCCCUGUCAGAUUCUGGCGAAUCUGCGAAUUCUGCUGU | 0.548
66 | GGGCGCCACAGCAGAAGCGUUCACGUCGCGGCCCCUGUCAGAUUCUGGGGAAUCUGCGAAUUCUGCUGU | 0.341
67 | GGGCGCCACAGCAGAAGCGUUCACGUCGCGGCCCCUGUGAGAUUCUGGUGAAUCUGCGAAUUCUGCUGU | 0.298
68 | GGGUGCCACAGCAGAAGCGUUCACGUCGCGGCCCCUGUCAGCUUCUGGUGAAUCUGCGAAUUCUGCUGU | 0.179
69 | GGGCGCCACAGCAGAAACGUUCACGUCGCGGCCCCUGUCAGAUUCUGGUGAAUCUGCGAAUUCUGCUGU | 0.0822
70 | GGGCGCCACAGCAGAAUCGUUCACGUCGCGGCCCCUGUCAGAUUCUGGUGAAUCUGCGAAUUCUGCUGU | 0.0737
71 | GGGCGCCACAGCAGAAGCGUUCACGUCGCGGCCACUGUCAGAUUCUGGUGAAUCUGCGAAUUCUGCUGU | 0.16
72 | GGGCGCCACAGCAGAAGCGUUCACGUCGCGGCCUCUGUCAGAUUCUGGUGAAUCUGCGAAUUCUGCUGU | 0.383
73 | GGGCGCCACAGCAGAAGCGUUCACGUCGCGGGCCCUGUCAGAUUCUGGUGAAUCUGCGAAUUCUGCUGU | 0.0983
74 | GGGCGCCACAGCAGAAGCGUUCACGUCGCGGACCCUGUCAGAUUCUGGUGAAUCUGCGAAUUCUGCUGU | 0.188
75 | GGGCGCGACAGCAGAAGCGUUCACGUCGCGGCCCCUGUCAGAUUCUGGUGAAUCUGCGAAUUCUGCUGU | 0.0794
76 | GGGCGCCACAGCAGAAGCGUUCACGCCGCGGCCCCUGUCAGAUUCUGGUGAAUCUGCGAAUUCUGCUGU | 0.472
77 | GGGCGCCACAGCAGAAGCGUUCACGUCGUGGCCCCUGUCAGAUUCUGGUGAAUCUGCGAAUUCUGCUGU | 0.131
78 | GGGUGCCACAGCAGAAGCGUUCAUGUCGCGGCCCCUGUCAGAUUCUGGUGAAUCUGCGAAUUCUGCUGU | 0.193
